Experimental data published in the supplement of paper PMC5998384.

Tests used:
[1] = tested on: HeLa Kyoto; assay: solubility in G1/S (NP-40 vs SDS abundance) (log2 ratio); higher = more soluble; conditions: cell cycle stage: G1/S
[2] = tested on: HeLa Kyoto; assay: solubility change mitosis vs G1/S (difference of NP-40 vs SDS log2 ratios) (log2 ratio difference); higher = more soluble in mitosis
[3] = tested on: HeLa Kyoto; assay: thermal stability score vs G1/S (z-score of summed log2 fold changes over temperatures); higher = more thermally stable than in G1/S
[4] = tested on: HeLa Kyoto; assay: melting temperature (median over replicates), in situ; higher = more thermally stable
[5] = cell cycle stage: early G1 (4.5 h after nocodazole release)
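Wherever melting temperature (median over replicates), in situ is given: HeLa Kyoto cells synchronized by double thymidine or nocodazole block, proteins quantified by TMT10plex mass spectrometry, three independent biological replicates.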
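Wherever solubility change mitosis vs G1/S (difference of NP-40 vs SDS log2 ratios) is given: synchronized HeLa Kyoto cells (double thymidine block for G1/S, nocodazole release for mitosis), protein amounts in NP-40 versus SDS lysates quantified by mass spectrometry, three biological replicates.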
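Wherever solubility in G1/S (NP-40 vs SDS abundance) is given: HeLa Kyoto cells arrested at G1/S by double thymidine block, proteins quantified by TMT10plex mass spectrometry in mild NP-40 versus SDS extracts, three biological replicates.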
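Wherever thermal stability score vs G1/S (z-score of summed log2 fold changes over temperatures) is given: synchronized HeLa Kyoto cells, proteins quantified by TMT10plex mass spectrometry, three biological replicates, mitosis taken 0.5 h after nocodazole release, G1/S directly after double thymidine block.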

Row | Sequence | solubility in G1/S (log2) [1] | solubility change mitosis (log2) [2] | thermal stability score [3, 5] | thermal stability score ([3]; cell cycle stage: mitosis) | melting temperature ([4]; cell cycle stage: G1/S) [°C] | melting temperature ([4]; cell cycle stage: mitosis) [°C]
1 | MAAAPLKVCIVGSGNWGSAVAKIIGNNVKKLQKFASTVKMWVFEETVNGRKLTDIINNDHENVKYLPGHKLPENVVAMSNLSEAVQDADLLVFVIPHQFIHRICDEITGRVPKKALGITLIKGIDEGPEGLKLISDIIREKMGIDISVLMGANIANEVAAEKFCETTIGSKVMENGLLFKELLQTPNFRITVVDDADTVELCGALKNIVAVGAGFCDGLRCGDNTKAAVIRLGLMEMIAFARIFCKGQVSTATFLESCGVADLITTCYGGRNRRVAEAFARTGKTIEELEKEMLNGQKLQGPQTSAEVYRILKQKGLLDKFPLFTAVYQICYESRPVQEMLSCLQSHPEHT [GPD1L] | 0.144 | -0.126 | 0.464 | -0.000421 | 53.2 | 53
2 | MAAAPPLRDRLSFLHRLPILLKGTSDDDVPCPGYLFEEIAKISHESPGSSQCLLEYLLSRLHSSSGHGKLKVLKILLYLCSHGSSFFLLILKRNSAFIQEAAAFAGPPDPLHGNSLYQKVRAAAQDLGSTLFSDTVLPLAPSQPLGTPPATGMGSQARPHSTLQGFGYSKEHGRTAVRHQPGQAGGGWDELDSGPSSQNSSQNSDLSRVSDSGSHSGSDSHSGASREPGDLAERVEVVALSDCQQELSLVRTVTRGPRAFLSREEAQHFIKACGLLNCEAVLQLLTCHLRGTSECTQLRALCAIASLGSSDLLPQEHILLRTRPWLQELSMGSPGPVTNKATKILRHFEASCGQLSPARGTSAEPGPTAALPGPSDLLTDAVPLPGSQVFLQPLSSTPVSSRSPAPSSGMPSSPVPTPPPDASPIPAPGDPSEAEARLAESRRWRPERIPGGTDSPKRGPSSCAWSRDSLFAGMELVACPRLVGAGAAAGESCPDAPRAPQTSSQRTAAKEPPGSEPSAFAFLNA [ENTHD2] | 0.305 | 0.0532 | -0.323 | -0.0735 | 53.4 | 50.6
3 | MAAARATTPADGEEPAPEAEALAAARERSSRFLSGLELVKQGAEARVFRGRFQGRAAVIKHRFPKGYRHPALEARLGRRRTVQEARALLRCRRAGISAPVVFFVDYASNCLYMEEIEGSVTVRDYIQSTMETEKTPQGLSNLAKTIGQVLARMHDEDLIHGDLTTSNMLLKPPLEQLNIVLIDFGLSFISALPEDKGVDLYVLEKAFLSTHPNTETVFEAFLKSYSTSSKKARPVLKKLDEVRLRGRKRSMVG [TP53RK] | 0.367 | -0.151 | 0.0261 | -0.818 | 55.1 | 53
4 | MAAASAVSVLLVAAERNRWHRLPSLLLPPRTWVWRQRTMKYTTATGRNITKVLIANRGEIACRVMRTAKKLGVQTVAVYSEADRNSMHVDMADEAYSIGPAPSQQSYLSMEKIIQVAKTSAAQAIHPGCGFLSENMEFAELCKQEGIIFIGPPPSAIRDMGIKSTSKSIMAAAGVPVVEGYHGEDQSDQCLKEHARRIGYPVMIKAVRGGGGKGMRIVRSEQEFQEQLESARREAKKSFNDDAMLIEKFVDTPRHVEVQVFGDHHGNAVYLFERDCSVQRRHQKIIEEAPAPGIKSEVRKKLGEAAVRAAKAVNYVGAGTVEFIMDSKHNFCFMEMNTRLQVEHPVTEMITGTDLVEWQLRIAAGEKIPLSQEEITLQGHAFEARIYAEDPSNNFMPVAGPLVHLSTPRADPSTRIETGVRQGDEVSVHYDPMIAKLVVWAADRQAALTKLRYSLRQYNIVGLHTNIDFLLNLSGHPEFEAGNVHTDFIPQHHKQLLLSRKAAAKESLCQAALGLILKEKAMTDTFTLQAHDQFSPFSSSSGRRLNISYTRNMTLKDGKNNVAIAVTYNHDGSYSMQIEDKTFQVLGNLYSEGDCTYLKCSVNGVASKAKLIILENTIYLFSKEGSIEIDIPVPKYLSSVSSQETQGGPLAPMTGTIEKVFVKAGDKVKAGDSLMVMIAMKMEHTIKSPKDGTVKKVFYREGAQANRHTPLVEFEEEESDKRESE [MCCC1] | -0.0598 | -0.125 | -0.414 | -0.17 | 51.4 | 51.3
5 | MAAASGSVLQRCIVSPAGRHSASLIFLHGSGDSGQGLRMWIKQVLNQDLTFQHIKIIYPTAPPRSYTPMKGGISNVWFDRFKITNDCPEHLESIDVMCQVLTDLIDEEVKSGIKKNRILIGGFSMGGCMAIHLAYRNHQDVAGVFALSSFLNKASAVYQALQKSNGVLPELFQCHGTADELVLHSWAEETNSMLKSLGVTTKFHSFPNVYHELSKTELDILKLWILTKLPGEMEKQK [LYPLAL1] | 0.361 | -0.0182 | 1.32 | 0.974 | 52 | 52.3
6 | MAAASPLRDCQAWKDARLPLSTTSNEACKLFDATLTQYVKWTNDKSLGGIEGCLSKLKAADPTFVMGHAMATGLVLIGTGSSVKLDKELDLAVKTMVEISRTQPLTRREQLHVSAVETFANGNFPKACELWEQILQDHPTDMLALKFSHDAYFYLGYQEQMRDSVARIYPFWTPDIPLSSYVKGIYSFGLMETNFYDQAEKLAKEALSINPTDAWSVHTVAHIHEMKAEIKDGLEFMQHSETFWKDSDMLACHNYWHWALYLIEKGEYEAALTIYDTHILPSLQANDAMLDVVDSCSMLYRLQMEGVSVGQRWQDVLPVARKHSRDHILLFNDAHFLMASLGAHDPQTTQELLTTLRDASESPGENCQHLLARDVGLPLCQALVEAEDGNPDRVLELLLPIRYRIVQLGGSNAQRDVFNQLLIHAALNCTSSVHKNVARSLLMERDALKPNSPLTERLIRKAATVHLMQ [TTC38] | 0.319 | -0.0718 | -0.435 | -0.408 | 53.1 | 53.1
7 | MAADISESSGADCKGDPRNSAKLDADYPLRVLYCGVCSLPTEYCEYMPDVAKCRQWLEKNFPNEFAKLTVENSPKQEAGISEGQGTAGEEEEKKKQKRGGRGQIKQKKKTVPQKVTIAKIPRAKKKYVTRVCGLATFEIDLKEAQRFFAQKFSCGASVTGEDEIIIQGDFTDDIIDVIQEKWPEVDDDSIEDLGEVKK [DENR] | 0.481 | 0.142 | 0.263 | 0.467 | 56.9 | 58.6
8 | MAAEAADLGLGAAVPVELRRERRMVCVEYPGVVRDVAKMLPTLGGEEGVSRIYADPTKRLELYFRPKDPYCHPVCANRFSTSSLLLRIRKRTRRQKGVLGTEAHSEVTFDMEILGIISTIYKFQGMSDFQYLAVHTEAGGKHTSMYDKVLMLRPEKEAFFHQELPLYIPPPIFSRLDAPVDYFYRPETQHREGYNNPPISGENLIGLSRARRPHNAIFVNFEDEEVPKQPLEAAAQTWRRVCTNPVDRKVEEELRKLFDIRPIWSRNAVKANISVHPDKLKVLLPFIAYYMITGPWRSLWIRFGYDPRKNPDAKIYQVLDFRIRCGMKHGYAPSDLPVKAKRSTYNYSLPITVKKTSSQLVTMHDLKQGLGPSGTSGARKPASSKYKLKDSVYIFREGALPPYRQMFYQLCDLNVEELQKIIHRNDGAENSCTERDGWCLPKTSDELRDTMSLMIRQTIRSKRPALFSSSAKADGGKEQLTYESGEDEEDEEEEEEEEEDFKPSDGSENEMETEILDYV [GTF3C5] | -0.0747 | -0.0211 | 2.34 | 4.79 | 47.8 | 49.4
9 | MAAEGWIWRWGWGRRCLGRPGLLGPGPGPTTPLFLLLLLGSVTADITDGNSEHLKREHSLIKPYQGVGSSSMPLWDFQGSTMLTSQYVRLTPDERSKEGSIWNHQPCFLKDWEMHVHFKVHGTGKKNLHGDGIALWYTRDRLVPGPVFGSKDNFHGLAIFLDTYPNDETTERVFPYISVMVNNGSLSYDHSKDGRWTELAGCTADFRNRDHDTFLAVRYSRGRLTVMTDLEDKNEWKNCIDITGVRLPTGYYFGASAGTGDLSDNHDIISMKLFQLMVEHTPDEESIDWTKIEPSVNFLKSPKDNVDDPTGNFRSGPLTGWRVFLLLLCALLGIVVCAVVGAVVFQKRQERNKRFY [LMAN2] | 0.163 | -0.0609 | 2.85 | 5.52 | 54.1 | 53.8
10 | MAAEREPPPLGDGKPTDFEDLEDGEDLFTSTVSTLESSPSSPEPASLPAEDISANSNGPKPTEVVLDDDREDLFAEATEEVSLDSPEREPILSSEPSPAVTPVTPTTLIAPRIESKSMSAPVIFDRSREEIEEEANGDIFDIEIGVSDPEKVGDGMNAYMAYRVTTKTSLSMFSKSEFSVKRRFSDFLGLHSKLASKYLHVGYIVPPAPEKSIVGMTKVKVGKEDSSSTEFVEKRRAALERYLQRTVKHPTLLQDPDLRQFLESSELPRAVNTQALSGAGILRMVNKAADAVNKMTIKMNESDAWFEEKQQQFENLDQQLRKLHVSVEALVCHRKELSANTAAFAKSAAMLGNSEDHTALSRALSQLAEVEEKIDQLHQEQAFADFYMFSELLSDYIRLIAAVKGVFDHRMKCWQKWEDAQITLLKKREAEAKMMVANKPDKIQQAKNEIREWEAKVQQGERDFEQISKTIRKEVGRFEKERVKDFKTVIIKYLESLVQTQQQLIKYWEAFLPEAKAIA [SNX2] | 0.143 | -0.226 | 0.424 | -0.352 | 51.4 | 51.2
11 | MAAEWASRFWLWATLLIPAAAVYEDQVGKFDWRQQYVGKVKFASLEFSPGSKKLVVATEKNVIAALNSRTGEILWRHVDKGTAEGAVDAMLLHGQDVITVSNGGRIMRSWETNIGGLNWEITLDSGSFQALGLVGLQESVRYIAVLKKTTLALHHLSSGHLKWVEHLPESDSIHYQMVYSYGSGVVWALGVVPFSHVNIVKFNVEDGEIVQQVRVSTPWLQHLSGACGVVDEAVLVCPDPSSRSLQTLALETEWELRQIPLQSLDLEFGSGFQPRVLPTQPNPVDASRAQFFLHLSPSHYALLQYHYGTLSLLKNFPQTALVSFATTGEKTVAAVMACRNEVQKSSSSEDGSMGSFSEKSSSKDSLACFNQTYTINLYLVETGRRLLDTTITFSLEQSGTRPERLYIQVFLKKDDSVGYRALVQTEDHLLLFLQQLAGKVVLWSREESLAEVVCLEMVDLPLTGAQAELEGEFGKKADGLLGMFLKRLSSQLILLQAWTSHLWKMFYDARKPRSQIKNEINIDTLARDEFNLQKMMVMVTASGKLFGIESSSGTILWKQYLPNVKPDSSFKLMVQRTTAHFPHPPQCTLLVKDKESGMSSLYVFNPIFGKWSQVAPPVLKRPILQSLLLPVMDQDYAKVLLLIDDEYKVTAFPATRNVLRQLHELAPSIFFYLVDAEQGRLCGYRLRKDLTTELSWELTIPPEVQRIVKVKGKRSSEHVHSQGRVMGDRSVLYKSLNPNLLAVVTESTDAHHERTFIGIFLIDGVTGRIIHSSVQKKAKGPVHIVHSENWVVYQYWNTKARRNEFTVLELYEGTEQYNATAFSSLDRPQLPQVLQQSYIFPSSISAMEATITERGITSRHLLIGLPSGAILSLPKALLDPRRPEIPTEQSREENLIPYSPDVQIHAERFINYNQTVSRMRGIYTAPSGLESTCLVVAYGLDIYQTRVYPSKQFDVLKDDYDYVLISSVLFGLVFATMITKRLAQVKLLNRAWR [EMC1] | 0.0605 | -0.266 | 1.42 | 1.57 | 55.1 | 54.8
12 | MAAGGRMEDGSLDITQSIEDDPLLDAQLLPHHSLQAHFRPRFHPLPTVIIVNLLWFIHLVFVVLAFLTGVLCSYPNPNEDKCPGNYTNPLKVQTVIILGKVILWILHLLLECYIQYHHSKIRNRGYNLIYRSTRHLKRLALMIQSSGNTVLLLILCMQHSFPEPGRLYLDLILAILALELICSLICLLIYTVKIRRFNKAKPEPDILEEEKIYAYPSNITSETGFRTISSLEEIVEKQGDTIEYLKRHNALLSKRLLALTSSDLGCQPSRT [TMEM192] | 0.0852 | -0.241 | 0.271 | -1.67 | 55.6 | 55.9
13 | MAAGTAAALAFLSQESRTRAGGVGGLRVPAPVTMDSFFFGCELSGHTRSFTFKVEEEDDAEHVLALTMLCLTEGAKDECNVVEVVARNHDHQEIAVPVANLKLSCQPMLSLDDFQLQPPVTFRLKSGSGPVRITGRHQIVTMSNDVSEEESEEEEEDSDEEEVELCPILPAKKQGGRP [NPM3] | -0.153 | 0.0933 | -0.577 | -2.29 | 54 | 53
